From US20230242658A1 (published 2023)
Substitutions are numbered along the chain they refer to.

B1: PR001758 (antibody, human IgG1, V domains shown)
VH: EVQLLESGGGLVQLGGSLRLSCAASGFTFSRYAMTWVRQAPEKGLEWVSSISGSGDDTYYGDSVKGRFTISRDNSQNTVYLQMNSLRAEDTAVYFCAKEKAGTTGDYYYNVDVWGQGTTVTVSS
notes: HCAb, heavy chain only, human IgG1 Fc; also called 1016P0010B11
B2: PR007295 (antibody, human IgG1, V domains shown)
VH: EVQLVESGGGLVKPGGSLRLSCAASGFTFSDYYMSWIRQAPGKGLEWVSYISNNGSTIYYADSVKGRFTISRDNAKNSLYLQMNSLRAEDTAVYYCARVRPGGSGNYWDWFDPWGQGTMVTVSS
notes: HCAb, heavy chain only, human IgG1 Fc; also called R1016P147A09
B3: PR007291 (antibody, human IgG1, V domains shown)
VH: B2 VH with A23V, A24T, S35N, L45Q, N53G, M119P
notes: HCAb, heavy chain only, human IgG1 Fc; also called R1016P145C07
B4: PR007297 (antibody, human IgG1, V domains shown)
VH: B2 VH with N53R, N54S, M119L
notes: HCAb, heavy chain only, human IgG1 Fc; also called R1016P149F10
B5: PR007300 (antibody, human IgG1, V domains shown)
VH: B2 VH with A23T, A24T, S35N, I37V, M119P
notes: HCAb, heavy chain only, human IgG1 Fc; also called R1016P156E05
B6: PR007146 (bispecific antibody, human IgG1, kappa)
light: DIQMTQSPSTLSASVGDRVTVTCRASQSIYIWLAWYQQKPGKAPNLLIYKASSLETGVPSRFSGSGSGTEFTLTISSLQPDDFATYYCQQYYGSSRTFGQGTKVEIKRTVAAPSVFIFPPSDEQLKSGTASVVCLLNNFYPREAKVQWKVDNALQSGNSQESVTEQDSKDSTYSLSSTLTLSKADYEKHKVYACEVTHQGLSSPVTKSFNRGEC
heavy: EVQLVESGGGLVQPGGSLRLSCAASGFTFSSYWMSWVRQAPGKGLEWVANIKQEGSEKYYVDSVKGRFTISRDNAKNSLYLQMNSLRAEDTAVYYCARDRAVAGAFDIWGQGTMVTVSSASTKGPSVFPLAPSSKSTSGGTAALGCLVKDYFPEPVTVSWNSGALTSGVHTFPAVLQSSGLYSLSSVVTVPSSSLGTQTYICNVNHKPSNTKVDKKVEPKSCDKTHTCPPCPAPEAAGAPSVFLFPPKPKDTLMISRTPEVTCVVVDVSHEDPEVKFNWYVDGVEVHNAKTKPREEQYNSTYRVVSVLTVLHQDWLNGKEYKCKVSNKALPAPIEKTISKAKGQPREPQVYTLPPSREEMTKNQVSLTCLVKGFYPSDIAVEWESNGQPENNYKTTPPVLDSDGSFFLYSKLTVDKSRWQQGNVFSCSVMHEALHNHYTQKSLSLSPGGGSGGSEVQLVESGGGLVKPGGSLRLSCAASGFTFSDYYMSWVRQAPGKGLEWVSYISSSGSTIDYADSVKGRFTISRDNAKNSLFLEMNSLRAEDTAVYYCAREREEVAGTLDFDNWGQGTLVTVSS
notes: PD-L1x4-1BB IgG-VH: PR000265 + VH of PR007298 at heavy-chain C-terminus
B7: PR007142 (bispecific antibody, human IgG1, kappa)
light: B6 light
heavy: EVQLVESGGGLVQPGGSLRLSCAASGFTFSSYWMSWVRQAPGKGLEWVANIKQEGSEKYYVDSVKGRFTISRDNAKNSLYLQMNSLRAEDTAVYYCARDRAVAGAFDIWGQGTMVTVSSASTKGPSVFPLAPSSKSTSGGTAALGCLVKDYFPEPVTVSWNSGALTSGVHTFPAVLQSSGLYSLSSVVTVPSSSLGTQTYICNVNHKPSNTKVDKKVEPKSCDKTHTCPPCPAPEAAGAPSVFLFPPKPKDTLMISRTPEVTCVVVDVSHEDPEVKFNWYVDGVEVHNAKTKPREEQYNSTYRVVSVLTVLHQDWLNGKEYKCKVSNKALPAPIEKTISKAKGQPREPQVYTLPPSREEMTKNQVSLTCLVKGFYPSDIAVEWESNGQPENNYKTTPPVLDSDGSFFLYSKLTVDKSRWQQGNVFSCSVMHEALHNHYTQKSLSLSPGGGSGGSEVQLVESGGGLVKPGGSLRLSCAASGFTFSDYYMSWIRQAPGKGLEWVSYISNNGSTIYYADSVKGRFTISRDNAKNSLYLQMNSLRAEDTAVYYCARVRPGGSGNYWDWFDPWGQGTMVTVSS
notes: PD-L1x4-1BB IgG-VH: PR000265 + VH of PR007295 at heavy-chain C-terminus
B8: PR007138 (bispecific antibody, human IgG1, kappa)
light: B6 light
heavy: B7 heavy with A477V, A478T, S489N, L499Q, N507G, M573P
notes: PD-L1x4-1BB IgG-VH: PR000265 + VH of PR007291 at heavy-chain C-terminus
B9: PR007145 (bispecific antibody, human IgG1, kappa)
light: B6 light
heavy: B7 heavy with N507R, N508S, M573L
notes: PD-L1x4-1BB IgG-VH: PR000265 + VH of PR007297 at heavy-chain C-terminus
B10: PR007149 (bispecific antibody, human IgG1, kappa)
light: B6 light
heavy: B7 heavy with A477T, A478T, S489N, I491V, M573P
notes: PD-L1x4-1BB IgG-VH: PR000265 + VH of PR007300 at heavy-chain C-terminus
B11: PR007299 (antibody, human IgG1, V domains shown)
VH: EVQLVESGGGLVKPGGSLRLSCAASGFTFSDYQMSWLRQAPGKGLEWVSYISSSGRTIYYADSVKGRFTISRDNAKNSVSLQMNSLRAEDTAVYYCAREGRFFPGQGTPVTVSS
notes: HCAb, heavy chain only, human IgG1 Fc; also called R1016P149H12
B12: PR007286 (antibody, human IgG1, V domains shown)
VH: EVQLVESGGGLVKPGGSLRLSCAASGFTFSDYYMSWIRQAPGKGLEWVSYISSSGSTIYYADSVKGRFTISRDNAKNSLYLQMNSLRAEDTAVYYCARVKPVAGTWDWFDPWGQGTPVTVSS
notes: HCAb, heavy chain only, human IgG1 Fc; also called R1016P142D03
B13: PR007296 (antibody, human IgG1, V domains shown)
VH: EVQLVESGGGLVKPGGSLRLSCVASGFTFSDYYMSWFRQAPGKGLEWVSYISGSGTTIDYADSVKGRFTISRDNAKNSLYLQMNSLRAEDTAVYYCAREREAVAGTLDFDNWGQGTPVTVSS
notes: HCAb, heavy chain only, human IgG1 Fc; also called R1016P147B10
B14: PR001759 (antibody, human IgG1, V domains shown)
VH: EVQLLESGGGLVQPGGSLRLSCAASGFTFSSYAMSWFRQPPETGLQWVSSIGGSGGDTYYADSVKGRFTISRDNSKNTLYLQMNSLRAEDTAVYYCAKEGSNGTDDNYYDVDVWGQGTTVTVSS
notes: HCAb, heavy chain only, human IgG1 Fc; also called 1016P0010D7

How the values were obtained:
[1] = target: 4-1BB on HEK293/4-1BB/NF-kb reporter cells; experiment: cell-based or functional assay
[2] = target: T1, human 4-1BB on CHO-K1 cells (human, UniProt Q07011 24-255); experiment: FACS, CHO-K1/hu 4-1BB cells
T1 construct: whole, on cells; also called CHO-K1/hu 4-1BB; CHO-K1/hu4-1BB
T1 sequence (Q07011 24-255): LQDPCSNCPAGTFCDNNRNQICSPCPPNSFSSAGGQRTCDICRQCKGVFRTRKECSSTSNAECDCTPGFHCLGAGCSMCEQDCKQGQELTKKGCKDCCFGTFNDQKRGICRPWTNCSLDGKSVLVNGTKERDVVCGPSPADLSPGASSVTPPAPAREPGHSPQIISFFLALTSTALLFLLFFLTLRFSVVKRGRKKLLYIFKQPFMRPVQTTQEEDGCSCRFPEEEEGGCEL

[3] = target: T2, histidine-labeled human 4-1BB protein (human, UniProt Q07011 24-186); experiment: BLI Octet RED96, AHC sensor, his-tagged antigen
T2 construct: also called Human 4-1BB protein antigen (histidine-labeled); human 4-1BB protein and his tag (Acrobiosystem, #41B-H5227); not shown: histidine tag
T2 sequence (Q07011 24-186): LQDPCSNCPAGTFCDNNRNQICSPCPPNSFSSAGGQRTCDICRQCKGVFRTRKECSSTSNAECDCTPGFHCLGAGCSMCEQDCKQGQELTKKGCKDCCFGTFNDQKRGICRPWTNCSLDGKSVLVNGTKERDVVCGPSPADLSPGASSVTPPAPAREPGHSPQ
Method: (§1) Specifically, human 4-1BB protein and his tag (Acrobiosystem, #41B-H5227), or cynomolgus monkey 4-1BB protein and his tag (Acrobiosystem, #41B-052H4), were diluted to 400 nM with PBS buffer (pH 7.4) containing 0.1% (w/w) BSA and 0.02% (v/v) Tween 20, and incubated with the AHC sensor. A 40 nM 4-1BB antibody was incubated with the AHC sensor loaded with human 4-1BB protein or monkey 4-1BB protein at 30° C. for 3 min. The reaction mixture was incubated in PBS buffer (pH 7.4) containing 0.1% (v/w) BSA and 0.02% (v/v) Tween 20 at 30° C. for another 5 min The binding and separation signals between the 4-1BB antibody and 4-1BB protein were recorded by Octet Red 96 in real time. The affinity and association and dissociation constants were determined by Octet using software.

[4] = target: T3, histidine-labeled cynomolgus monkey 4-1BB protein (cynomolgus monkey); experiment: BLI Octet RED96, AHC sensor, his-tagged antigen
T3 construct: also called Monkey 4-1BB protein antigen (histidine-labeled); cynomolgus monkey 4-1BB protein and his tag (Acrobiosystem, #41B-052H4)
Method: as §1

[5] = target: T4, human PD-L1 on CHO-K1 cells (human, UniProt Q9NZQ7 19-290); experiment: FACS, CHO-K1/hPD-L1 cells
T4 construct: whole, on cells; also called CHO-K1/hPDL1; CHO-K1/hPD-L1
T4 sequence (Q9NZQ7 19-290): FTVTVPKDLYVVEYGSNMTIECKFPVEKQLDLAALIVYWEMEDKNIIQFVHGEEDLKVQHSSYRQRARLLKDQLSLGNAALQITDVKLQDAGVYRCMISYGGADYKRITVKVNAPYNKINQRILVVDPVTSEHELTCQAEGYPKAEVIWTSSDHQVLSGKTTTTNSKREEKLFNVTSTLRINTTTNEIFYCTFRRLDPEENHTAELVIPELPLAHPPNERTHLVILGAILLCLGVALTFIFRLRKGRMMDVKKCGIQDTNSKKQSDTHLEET

[6] = target: T1, human 4-1BB on CHO-K1 cells; experiment: FACS, CHO-K1/hu4-1BB cells
Method: The binding abilities of the antibody molecules to a CHO-K1 cell strain highly expressing human 4-1BB (CHO-K1/hu4-1BB, GenScript, M00538) and a CHO-K1 cell strain highly expressing cynomolgus monkey 4-1BB (CHO-K1/cyno4-1BB, GenScript, M00569) were determined by flow cytometry FACS. Specifically, the cells were digested and resuspended in a complete medium, and the cell density was adjusted to 2×10⁶ cells/mL. Then, the cells were seeded in a 96-well V-bottom plate (Corning, #3894) at 100 μL/well (2×10⁵ cells/well) and centrifuged at 4° C. for 5 min, and the supernatant was discarded. Then, the serially diluted antibody molecules were added to the 96-well plate at 100 μL/well, and the mixtures were well mixed. The antibody molecules might serially diluted 3-fold from the highest final concentration 200 nM to obtain a total of 12 concentrations. hIgG1 iso (CrownBio, #C0001) was used as an isotype control. The cells were incubated at 4° C. for 1 h away from light. Then, the cells in each well were rinsed twice with 100 μL of pre-cooled FACS buffer (PBS buffer containing 0.5% BSA) and centrifuged at 500 g at 4° C. for 5 min, and then the supernatant was discarded. […] Then, the cells in each well were then rinsed twice with 200 μL of pre-cooled FACS buffer and centrifuged at 500 g at 4° C. for 5 min, and then the supernatant was discarded. Finally, a pre-cooled FACS buffer was added at 200 μL/well to resuspend the cells. The fluorescence signal values were read using a BD FACS CANTOII flow cytometer.

Row | Binder | EC50, NF-kb luciferase reporter, CHO-K1/CD32b crosslinking [1] | binding result [2] | binding result [5] | binding result [6] | further results
1 | B1 | < 800 pM | – | – | – | EC50 [2]: < 300 pM; Kd [3]: 25600 pM; Response [3]: 0.326; koff [3]: 0.00578 s⁻¹; kon [3]: 226000 M⁻¹ s⁻¹; Kd [4]: 7410 pM; Response [4]: 0.274; koff [4]: 0.00112 s⁻¹; kon [4]: 151000 M⁻¹ s⁻¹
2 | B2 | < 800 pM | binds | – | – | –
3 | B3 | < 800 pM | binds | – | – | –
4 | B4 | < 800 pM | binds | – | – | –
5 | B5 | < 800 pM | binds | – | – | –
6 | B6 | – | – | binds | binds | –
7 | B7 | – | – | binds | binds | –
8 | B8 | – | – | binds | binds | –
9 | B9 | – | – | binds | binds | –
10 | B10 | – | – | binds | binds | –
11 | B11 | < 800 pM | binds | – | – | –
12 | B12 | < 800 pM | binds | – | – | –
13 | B13 | < 800 pM | binds | – | – | –
14 | B14 | < 800 pM | – | – | – | EC50 [2]: < 300 pM; Kd [3]: 12300 pM; Response [3]: 0.284; koff [3]: 0.00389 s⁻¹; kon [3]: 317000 M⁻¹ s⁻¹; Kd [4]: 11000 pM; Response [4]: 0.283; koff [4]: 0.00237 s⁻¹; kon [4]: 215000 M⁻¹ s⁻¹
